The target in experiment [1] is human HER2 (ErbB2) expressed on the surface of cell lines and primary cells (human) (UniProt P04626). Description: flow cytometry, JIMT1 cells, [Ab] 5 ug/ml. (In general: In flow cytometry, cells or beads pass a laser one at a time.)
The target is the same in experiment [2]. Description: flow cytometry, ZR751 cells, [Ab] 5 ug/ml.
Experiment [3] has the same target. As to the kind of experiment: flow cytometry, JIMT1 cells, [Ab] 10 ug/ml.
Experiment [4] has the same target. Description: flow cytometry, JIMT1 cells, [Ab] 20 ug/ml.
Experiment [5] has the same target. Description: flow cytometry, ZR751 cells, [Ab] 10 ug/ml.
Experiment [6] has the same target. As to the kind of experiment: flow cytometry, ZR751 cells, [Ab] 20 ug/ml.
Experiment [7] shares this target. As to the kind of experiment: flow cytometry, ZR751 cells, [Ab] 40 ug/ml.
The target is the same in experiment [8]. As to the kind of experiment: flow cytometry, ZR751 cells, [Ab] 2.5 ug/ml.
Experiment [9] has the same target. As to the kind of experiment: flow cytometry, MDAMB361 cells, [Ab] 5 ug/ml.
Experiment [10] has the same target. Description: flow cytometry, JIMT1 cells, [Ab] 1.25 ug/ml.
Experiment [11] shares this target. Description: flow cytometry, ZR751 cells, [Ab] 0.31 ug/ml.
The target is the same in experiment [12]. As to the kind of experiment: flow cytometry, ZR751 cells, [Ab] 0.63 ug/ml.
Experiment [13] shares this target. As to the kind of experiment: flow cytometry, ZR751 cells, [Ab] 1.25 ug/ml.
Experiment [14] shares this target. Description: flow cytometry, MDAMB361 cells, [Ab] 10 ug/ml.
Experiment [15] has the same target. As to the kind of experiment: flow cytometry, MDAMB361 cells, [Ab] 20 ug/ml.
For experiment [16] the target is unchanged. Description: flow cytometry, MDAMB361 cells, [Ab] 40 ug/ml.
Experiment [17] has the same target. As to the kind of experiment: flow cytometry, MDAMB361 cells, [Ab] 1.25 ug/ml.

Turning to IC1 (isotype control antibody), the MFI A.U. in experiment [1] came to 190 A.U; in experiment [2] it was 696 A.U; in experiment [3] it was 240 A.U; in experiment [4], 516 A.U; in experiment [5], 1080 A.U; in [6], 2540 A.U. The MFI A.U. in [7] came to 3320 A.U; in experiment [8], 484 A.U; in [9], 253 A.U; in experiment [10], 183 A.U; in [11], 199 A.U; in [12], 271 A.U. Moreover, the MFI A.U. was determined as 312 A.U in experiment [13]; 605 A.U in experiment [14]; 617 A.U in experiment [15]; 558 A.U in experiment [16]; 202 A.U in experiment [17].

The record behind these values is US20240254255A1.
